Measured values published in article PMC4525488, “Structure-based Mechanistic Insights into Terminal Amide Synthase in Nosiheptide-Represented Thiopeptides Biosynthesis” (Scientific Reports, 2015).

B1: truncated NosA_(1-111) variant (domain or fragment, UniProt C6FX40 1-111, looked up)
chain: MTEHPAQQLYCTVVLWDLSRSAATVASLRAYLRDHAVDAYTTVPGLRQKTWISSTGPEGEQWGAVYLWDSPEAAYGRPPGVSKVVELIGYRPTERRYYSVEAATEGPAAAA
notes: NosA, terminal amide synthase of nosiheptide biosynthesis

Legend:
[1] = target: the molecule itself; assay: crystal structure; Se-Met NosA_(1-111), sitting-drop vapor diffusion at 293 K; 0.02 M magnesium chloride hexahydrate, 0.1 M HEPES pH 6.0-9.0, 22% w/v polyacrylic acid 5100; SAD, 2.40 Å
[2] = target: the molecule itself; assay: SEC; Superdex 75 10/300 GL, 50 mM Tris-HCl pH 7.5, 50 mM NaCl; retention compared with gel filtration markers of 44 kDa and 17 kDa
[3] = target: B1; assay: ITC; ITC-200, 20 mM Tris-HCl, 150 mM NaCl, pH 7.0, 298 K; who was in the syringe is not told; conditions: both partners purified

| Binder | stoichiometry N [2] | further results |
| --- | --- | --- |
| selenomethionine NosA_(1-111) (domain or fragment, UniProt C6FX40 1-111, looked up, selenomethionine in place of methionine (one Met residue at the N-terminal sequence), NosA, terminal amide synthase of nosiheptide biosynthesis; the crystallised form) MTEHPAQQLYCTVVLWDLSRSAATVASLRAYLRDHAVDAYTTVPGLRQKTWISSTGPEGEQWGAVYLWDSPEAAYGRPPGVSKVVELIGYRPTERRYYSVEAATEGPAAAA |  | binding result [1]: binds |
| B1 | 2 |  |
| APFGKGLGLAFDPASPEPLTRPQEFVPPGADAFIPSRPPA (peptide, UniProt C6FX40 112-151, looked up, NosA, terminal amide synthase of nosiheptide biosynthesis; Cloned in the pSMT3 vector; source: 15N-labelled in M9 medium for NMR) [C-terminal NosA_(112-151) peptide] |  | Kd [3]: 2.4 ± 1.2 mM |
| full-length NosA (wild type) (enzyme, UniProt C6FX40 1-151, looked up, NosA, terminal amide synthase of nosiheptide biosynthesis; Cloned in pET28a by NheI and HindIII; also called WT NosA; WT full-length NosA) MTEHPAQQLYCTVVLWDLSRSAATVASLRAYLRDHAVDAYTTVPGLRQKTWISSTGPEGEQWGAVYLWDSPEAAYGRPPGVSKVVELIGYRPTERRYYSVEAATEGPAAAAAPFGKGLGLAFDPASPEPLTRPQEFVPPGADAFIPSRPPA | 2 |  |
